# System: Ac-Ala-Ala-Pro-Thr(Man)-Pro-Val-Ala-Ala-Pro-NH2
# His-Xpress-sOMGnT(L), sequence (chain, as listed by the source): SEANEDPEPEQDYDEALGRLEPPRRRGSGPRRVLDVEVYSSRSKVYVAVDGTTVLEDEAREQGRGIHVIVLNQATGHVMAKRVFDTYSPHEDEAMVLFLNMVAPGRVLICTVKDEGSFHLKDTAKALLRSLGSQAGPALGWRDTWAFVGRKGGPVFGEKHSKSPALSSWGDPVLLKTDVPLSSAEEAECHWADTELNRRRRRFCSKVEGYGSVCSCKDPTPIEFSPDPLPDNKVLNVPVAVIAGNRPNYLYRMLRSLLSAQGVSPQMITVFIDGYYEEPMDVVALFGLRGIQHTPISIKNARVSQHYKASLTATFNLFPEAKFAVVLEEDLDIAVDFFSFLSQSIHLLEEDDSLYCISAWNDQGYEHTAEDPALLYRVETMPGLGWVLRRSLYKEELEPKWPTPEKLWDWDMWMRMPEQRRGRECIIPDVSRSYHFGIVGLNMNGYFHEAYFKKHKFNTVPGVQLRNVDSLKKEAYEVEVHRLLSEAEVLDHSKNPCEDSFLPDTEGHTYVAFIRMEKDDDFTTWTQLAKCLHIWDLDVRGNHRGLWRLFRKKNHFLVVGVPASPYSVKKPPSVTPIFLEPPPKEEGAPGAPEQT
substance,measurement,value
His-Xpress-sOMGnT(L),Km value,1850 µM
same,OMGnT activity (pmol/hr/mg protein) (pmol/hr/mg protein),15
same,OMGnT relative activity (%),100%

# Reference: patent publication US20040132130
